Experimental data reported in PMC9513805, “A natural transdifferentiation event involving mitosis is empowered by integrating signaling inputs with conserved plasticity factors”.

Assays:
[1] = biological target: T1, HMG-POP-1 (Caenorhabditis elegans, UniProt Q10666 181-281); experiment: EMSA; 20 mM Tris-HCl pH 8.0, 100 mM NaCl, 100 ug/mL BSA, 1 mM EDTA, 1 mM DTT, 0.1% NP-40; 20 min on ice (supershift 30 min at room temperature), 200 ng Cy5 probe; 6%; settings: protein: recombinant; tags: N-terminal 6xHis (pSJ769); label: Cy5 on forward strand; blunt
T1 sequence: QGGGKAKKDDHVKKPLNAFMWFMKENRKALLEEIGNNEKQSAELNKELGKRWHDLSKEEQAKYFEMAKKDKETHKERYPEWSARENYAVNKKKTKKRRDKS

[2] = biological target: SOX-2 (Caenorhabditis elegans, UniProt Q21305 1-283); experiment: as above; settings: protein: recombinant; tags: N-terminal 6xHis, C-terminal HA (pSJ6094); label: Cy5 on forward strand; blunt
Sequence of SOX-2 (Q21305 whole entry): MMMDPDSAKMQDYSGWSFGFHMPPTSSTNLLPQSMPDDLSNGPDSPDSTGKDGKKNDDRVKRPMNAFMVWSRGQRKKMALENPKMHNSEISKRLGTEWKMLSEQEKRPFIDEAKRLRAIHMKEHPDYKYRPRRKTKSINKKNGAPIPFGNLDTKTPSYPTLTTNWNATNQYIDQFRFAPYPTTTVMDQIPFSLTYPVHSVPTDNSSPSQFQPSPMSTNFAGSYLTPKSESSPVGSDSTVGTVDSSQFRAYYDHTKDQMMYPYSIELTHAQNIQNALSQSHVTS

B1: lim-6 intron 4 probe 1 (dsDNA)
DNA 1: TACGATTTGCAAACAACAAACATTCCAGACAGAT
DNA 2: ATCTGTCTGGAATGTTTGTTGTTTGCAAATCGTA
B1: binds [1]; binds [2].

B2: lim-6 intron 4 probe 2 (dsDNA)
DNA 1: CTGCTACCGTAGTGCTTTGTTGATTTAACACACA
DNA 2: TGTGTGTTAAATCAACAAAGCACTACGGTAGCAG
B2: binds [1]; binds [2].
